Experimental data published in paper PMC7125023.

Biological target: anti-RSV 2Fc mAb (dual Fc human IgG1, clone B21M variable regions) (human)
Test: SPR

Row | Substance | Kd [nM] | stoichiometry N
1 | human FcγRI (from UniProt P12314 16-292) (receptor) | 1.82 | 2.12 FcR:mAb
2 | human neonatal Fc receptor (FcRn) (from UniProt P55899 24-297) | 121 | 4.17 FcR:mAb
